Reference: the domain aggregation screens of Martell et al. (2025)

test: soluble fraction after stress (log2 fold change); higher = more stays soluble; pooled small domains, quantitative proteomics; conditions: stress: 50 degC
In short: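 After stress at 50°C, the amount of each protein still soluble was measured. This was done on pooled custom libraries of small protein domains, using high-throughput quantitative proteomics. The figure given is a base-two log fold change and stands for aggregation propensity, with higher values meaning more protein stays in solution.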

| Sequence | soluble fraction (log2) |
| --- | --- |
| HMKRYLFEEVLAFLKHNDGKSFNYKQLGAAMEIDNESDRFALLETLEELKHQGFVIETDIGKYAAKE | -0.324 |
| HMADVYFDGKFLGETPVTVAVSTTGKPAHEISLIRGGYEPWSTTYQGNPRPGQTATVMAILVHA | 0.287 |
| HMSIELEISADGNNYRVSGLSDGEDVRVYSVSGVQVFSGKAQGGEVVIPADNWNKGIYVISAGGSSVKVL | -0.196 |
| HMDIYENIDKELSKQGKSRRKLAIAAGIPPSTFQSMMERKRGLSVENLRKIAEVLNLKWYDLL | -0.195 |
| HMPKSVRQSFVYSPMYRDVEYLADFLRNNNKDDSSVSASGDKLVYYGTADEIARVKSVLKGVDV | -0.026 |
| HMDHKSQLQEWAQSTLGETPRYVTIAETGPDHDKELTVELIIGRKSYSIAKGKSKKQAEQSAARIALGLLM | -0.653 |
| HMNSKKETLLSYLYNHSTWSSRNDLSNFLNVSTRQVTNYINEINKNETIVLSSNKGYKINPKFIGKN | -0.611 |
| HMDIVKVYTTARAGETLASVAKRTGVDVARLAQWNDIPLKRAKQKLKTGKALALWVQREHASAYSNAPP | -0.151 |
| HMDREIVEAIVPLEAAGKRFDAALAEMFPEFSRSRLTEWIKAGDALLAGEIVKPKVSVRGGEAVSLSIRV | -0.485 |
| HMDAVQAGKRVLIVDDLIATGGTAKAATDLIEKAGGTVVGFSFVMRLDGLDGLDKLDGKPSSSLIAMP | 0.237 |
| HMKILALETSAKAVSAAVSENGRILASGYQDTGLTHSRTLMPIVEHILKNTDLKLSDMDAIAVAVGPG | 0.211 |
| HMDKMIFFKNKENNDDNQLVKIGALLIHAAKIDEDFSQEEENIIKQTLINFGAGNKNINEIIEKAKKME | 0.389 |
| HMRLDPENFYIRAVTYYRNGDWQRALSQLDEAIKLGTAIEYPALQARIYLEQGMRDEFIAASEK | -1.71 |
| HMSASSDATRQRVLRAAEQLFGAKGVENVSLREMTTLAGVNLAAVNYHFGSKDALAEAVFEALSER | 0.41 |
| HMQSVEELLDAIGDERLLHILLEADRKTLQIVVLKMMGYAPKEIGSHIGMPEQTVYTKLRRLREKIKKI | -1.49 |
| HMLKLPVEYLNLKYQLMHATSLDKPNNLMKLDEKLGKIIDVYYDDLPVDEQRVVDILQSKLYSY | -0.996 |
| HMNGYGALVRLGRSRGWVTVEEINDHLPESAVRTAENVQEITEALGRLSIKVFETRPDEDDLLIT | -0.0632 |
| HMSKNVTMPNLVGYSMRQAKAELLSRGLHLGKLIYVNDIATNNVISQLYRNAEIEPGVKIESESYVDLVVG | -1.45 |
| HMVQYVDFVKRMIEELPWWHRRMLELKYLDGLTYEEIADELQVPVGTVKGTLHRAKELFQEILKNN | -2.05 |

| Sequence | soluble fraction (log2) |
| --- | --- |
| HMSMDYYSTLGVSKTASASDIKKAYRKLAMANHPDKGGDSAKFAKITEAYDVLKDPQKRNNYDQFGTA | 0.162 |
| HMKGDYWIIDLDKNYQYAIISEPDRQYLWILSRSPNMDTQTLETLKEKIRSKGFDLTYLKQTL | -0.844 |
| HMDAHIGTLTPRERETLHHLAIGHSNKVIAKKLNLAESTVKAYVQSILRKLGLSSRVQAAVYAIQHDIR | -0.205 |
| HMLNMSVYDKQLLRAVENNPFISQRELARELHWNVDRVKYYMKKWKDKGGLRHVGSSHKGYWEVLVRIEEK | -0.886 |
| HMGEELIEIQNLRNKERREAEAILKNLDLVPVIQEQFDDTVPINRVITTDPGPDSTVKKGTTVMIYVSKGP | 0.253 |
| HMSSWEVLAEPIQTVMRRYGVPGAYEKLKEVTRGKSLTAEALHALIRSLDIPQADKERLLALTPAAWA | -0.703 |
| HMAPVVELEDVTIVRGKATLLDRVNWVIDETDRWVIVGPNGAGKTTLLQVVSANLHPTSGKAMILDEVL | 0.023 |
| HMTSSQRDSILEFLKTRKDHPTADVVYMNVRKSFPNISLGTVYRNLTLLSDIGQIAKIRVGDGVDHFDADT | -0.526 |
| HMPRFDINFKVGEVVTIKGGSFDGQQGEISEIDHEHGKIKVMLEVLGRLTPVEVEHTEIEKI | 0.176 |
| HMQKWILVNKQGRLSGILDHRAFNTRESATAWFQRTSDISGGTIKIDDYYYVLKNEEYKLLKE | -3.15 |
| HMLRLLEIIAGNEVSKEINSQVIKYYKALKNKKIEEINNLTPSYNKLIISFDLKKKNFREMKKIIEDISIN | -0.162 |
| HMVSNFEAEFGRHFAIFFPGSEFTELKLRLLEEGAELIDPIRDTPFERFFFKDPNGYIFEVIDKE | -2.28 |
| HMGDDYFTILGIERDATTDEIRSAYRRLSKKIHPDAQGSSALFRQVQEAYETLIDPSSRARYVAELNASQG | 0.113 |
| HMNLMQIHVARPPNQLGVFSQEEVAAGLQSGRFLPTDQAWRDGMSAWTPLSQWAEFSSVVAAV | 0.083 |
| HMAEVAFEEQNIEQISNLLLRIQAIFAELMTALDKEKGGEIADNLERLYVFFLEKLGDANVRKDPAP | 0.00759 |
| HMEIYELTDQEQRVLEFIGEGMTNREIAKNMFLAEKTVKNYVSSLLRKLGLERRTQAAAMAVRLSV | -0.0994 |
| HMKVQLGMNTREVRGIMGKPFSEDTFVEGEKRVDVLHYKEAVRVKTQGFILTTSLRFENDSLTAI | -1.74 |
| HMENDYTQAQFVQDLDSGVVREVIIIPNREAPTGYARVVFGDVVRELYATDIREVEALAREHGYEPTVED | 0.209 |
